The values that follow come from patent publication EP3025729B1 (Glaxo Group Limited, dated 2018).

Assay [1] concerns the target T1, human serum amyloid P component (SAP) (human, UniProt P02743 20-223).
T1 construct: Purified from human material; In some assays it stood denatured (reduced SDS-PAGE); this is said under assay; also called human SAP; homo sapiens SAP
Description: ELISA, human SAP directly immobilised at 1 µg/mL. Background: In an ELISA, binding on a coated surface is turned into a signal by an enzyme label.

In assay [2] the target is T2, cynomologus monkey SAP (cynomolgus monkey, UniProt A0A7N9DA00 20-223).
T2 construct: also called cyno SAP; cynomolgus monkey serum amyloid P component
T2 sequence (A0A7N9DA00 entry or part of it): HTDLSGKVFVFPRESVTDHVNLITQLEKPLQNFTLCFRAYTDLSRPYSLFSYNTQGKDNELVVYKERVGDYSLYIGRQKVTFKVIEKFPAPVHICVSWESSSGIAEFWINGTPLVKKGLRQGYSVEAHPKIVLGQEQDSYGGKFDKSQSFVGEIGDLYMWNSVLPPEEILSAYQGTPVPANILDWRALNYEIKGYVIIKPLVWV
Description: Biacore, cyno SAP amine-coupled on C1 chip, culture supernatant.

Changes are numbered by the printed parent chain.

T1 sequence (P02743 20-223, form in doubt): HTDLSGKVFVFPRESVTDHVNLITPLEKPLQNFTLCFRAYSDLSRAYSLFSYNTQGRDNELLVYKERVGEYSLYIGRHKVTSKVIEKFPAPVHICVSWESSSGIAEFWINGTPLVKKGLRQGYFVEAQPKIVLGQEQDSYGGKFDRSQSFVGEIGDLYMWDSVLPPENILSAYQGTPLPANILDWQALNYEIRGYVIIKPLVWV

B1: SAP-K H1L0 humanised antibody (antibody, V domains shown)
VH: QVQLVQSGAEVKKPGSSVKVSCKASGYTFTSYWMHWVRQAPGQGLEWMGMIHPNSVNTNYNEKFKSRVTITADKSTSTAYMELSSLRSEDTAVYYCARRNDYYWYFDVWGQGTLVTVSS
VL: DIQMTQSPSSLSASVGDRVTITCKASQNVNSNVAWYQQKPGKAPKLLIYSASYRYSGVPSRFSGSGSGTDFTLTISSLQPEDFATYYCQQCNNYPFTFGQGTKLEIK
Consider B1, for which the “fold loss of human SAP binding activity compared to SAP-K chimera” value (from here on “fold loss of human SAP binding activity”) in assay [1] was ~2 fold.

B2: SAP-K H0L0 humanised antibody (antibody, V domains shown)
VH: B1 VH with Y27G, T30S
VL: B1 VL
notes: also called SAP-K HOLO
As to B2, the “fold loss of human SAP binding activity” value in assay [1] is ~2 fold. Besides, the binding result in assay [2] was “no binding”.

B3: SAP-K H2L0 humanised antibody (antibody, V domains shown)
VH: B1 VH with M48I, V68A
VL: B1 VL
Take B3: the “fold loss of human SAP binding activity” value in assay [1] was ~2 fold.
